US20210070881A1 (DENALI THERAPEUTICS, published 2021)
Positions count from the first letter of the chain named.

B1: hu2H8v1 (antibody, V domains shown)
VH: QVQLVQSGAEVKKPGASVKVSCKASGYTFTNFWIHWVRQAPGQGLEWMGMIDPSDSYTKYNQKFKARVTMTRDTSTSTTYMELSSLRSEDTAVYYCARSGVAFPYWGQGTLVTVSS
VL: DIQMTQSPSSLSASVGDRVTITCKASQDVGRNVAWYQQKPGKAPKLLIYSASHRYSGVPSRFSGSGSGTDFTLTISSLQPEDFATYYCQQYNSYPYTFGQGTKVEIK
notes: humanized; also called hu2H8_HC1 + hu2H8_LC1
B2: hu2H8v2 (antibody, V domains shown)
VH: B1 VH with V37L
VL: B1 VL
notes: humanized; also called hu2H8_HC2 + hu2H8_LC1
B3: hu2H8v3 (antibody, V domains shown)
VH: B1 VH with V37L, R72V
VL: B1 VL
notes: humanized; also called hu2H8_HC3 + hu2H8_LC1
B4: 2H8.03 (antibody, human IgG1, V domains shown)
VH: EVQLQQSGAELVRPGTSVKLSCKASGYTFTSYWIHWVKQRPGQGLEWIGMIDPSDSYTKYNQKFKDKATLTVDTSSSTTYMHLSSLTSEDSAVYYCARSGVAFPYWGQRTLVTVSA
VL: DIVMTQSQKFMSKSVGDTVSVTCKASQDVGRNVAWYQQKSGQSPKSLIYSASHRYSGVPDRFTGSGSGTDFTLTISNVQSEDLADYFCQQYNSYPYTFGGGTRLEIK
notes: human IgG1/kappa; also called 2H8_HCvar3 + 2H8_LC
B5: 2H8.27 (antibody, human IgG1, V domains shown)
VH: B4 VH
VL: B4 VL with K13T, T18R, D28N, R31T, S46A, D85E, R103K
notes: human IgG1/kappa; also called 2H8_HCvar3 + 2H8_LCvar5
B6: 2H8.34 (antibody, human IgG1, V domains shown)
VH: EIQLQQSGTELVRPGTSVKLSCKASGYTFTNYWMHWVKQRPGQGLEWIGMIDPSAAYTNYNQNFKGKATLTVDTSSGTAYMQLSSLTSEDSAVYYCARSGVAFPYWGQGTTVTVSS
VL: B4 VL with V3Q, T18R, D28N, R31S
notes: human IgG1/kappa; also called 2H8_HCvar4 + 2H8_LCvar6
B7: 2H8.26 (antibody, human IgG1, V domains shown)
VH: B6 VH with I2V, S7P, V37I, A55D, A56T, N59K, Y60F, G77S, S84N
VL: B4 VL with K13T, T18R, D28N, R31T, S46A, D85E, R103K
notes: human IgG1/kappa; also called 2H8_HCvar2 + 2H8_LCvar5
B8: 2H8.30 (antibody, human IgG1, V domains shown)
VH: EVQLQQSGAELVRPGTSVKLSCKASGYTFNNYWMHWVKQRPGQGLEWIGMIDPSDDDIKNNQKFKGKATLTVDTSSSTAYMQLISLTSEDSAVYYCARSGVALPYWGQGTLVTVSA
VL: B4 VL with K13T, T18R, D28N, R31T, S46A, D85E, R103K
notes: human IgG1/kappa; also called 2H8_HCvar6 + 2H8_LCvar5
B9: 2H8.16 (antibody, human IgG1, V domains shown)
VH: B6 VH
VL: B4 VL with V3Q, K13T, V15I, T18R, D28N, R31T, S40P, R54W, D85E, R103K
notes: human IgG1/kappa; also called 2H8_HCvar4 + 2H8_LCvar3
B10: 2H8.21 (antibody, human IgG1, V domains shown)
VH: B4 VH
VL: B4 VL with K13T, T18R, V21I, D28N, R31T, S40P, S46A, H53Y, D85E, R103K
notes: human IgG1/kappa; also called 2H8_HCvar3 + 2H8_LCvar4
B11: 2H8.09 (antibody, human IgG1, V domains shown)
VH: B4 VH
VL: B4 VL with K13T, T18R, D28N, R31T, S40P, S46A, D85E, P95M, R103K
notes: human IgG1/kappa; also called 2H8_HCvar3 + 2H8_LCvar2
B12: 2H8.15 (antibody, human IgG1, V domains shown)
VH: B4 VH
VL: B4 VL with V3Q, K13T, V15I, T18R, D28N, R31T, S40P, R54W, D85E, R103K
notes: human IgG1/kappa; also called 2H8_HCvar3 + 2H8_LCvar3
B13: 2H8.40 (antibody, human IgG1, V domains shown)
VH: B6 VH
VL: B4 VL with V3L, K13T, T18R, D28N, K39I, S46P, A84V, D85E, Y86F, R103K
notes: human IgG1/kappa; also called 2H8_HCvar4 + 2H8_LCvar7
B14: 2H8.29 (antibody, human IgG1, V domains shown)
VH: EVQLQQPGAEVVRPGTSVKLSCKASGYTFTNYWMHWVKQRPGQGLEWIGMIDPSDNYTKYNQKLKGKATLTVDTSSSTANMHVNSLTSEDSAVYFCARSGVAFPYWGQGTLVTVSA
VL: B4 VL with K13T, T18R, D28N, R31T, S46A, D85E, R103K
notes: human IgG1/kappa; also called 2H8_HCvar5 + 2H8_LCvar5
B15: 2H8.28 (antibody, human IgG1, V domains shown)
VH: B6 VH
VL: B4 VL with K13T, T18R, D28N, R31T, S46A, D85E, R103K
notes: human IgG1/kappa; also called 2H8_HCvar4 + 2H8_LCvar5
B16: 2H8.25 (antibody, human IgG1, V domains shown)
VH: B4 VH with A9P, R13K, T16A, S31N, Y32F, V37L, D66A
VL: B4 VL with K13T, T18R, D28N, R31T, S46A, D85E, R103K
notes: human IgG1/kappa; also called 2H8_HC + 2H8_LCvar5
B17: 2H8.12 (antibody, human IgG1, V domains shown)
VH: B8 VH
VL: B4 VL with K13T, T18R, D28N, R31T, S40P, S46A, D85E, P95M, R103K
notes: human IgG1/kappa; also called 2H8_HCvar6 + 2H8_LCvar2
B18: 2H8.14 (antibody, human IgG1, V domains shown)
VH: B6 VH with I2V, S7P, V37I, A55D, A56T, N59K, Y60F, G77S, S84N
VL: B4 VL with V3Q, K13T, V15I, T18R, D28N, R31T, S40P, R54W, D85E, R103K
notes: human IgG1/kappa; also called 2H8_HCvar2 + 2H8_LCvar3
B19: 2H8.06 (antibody, human IgG1, V domains shown)
VH: B8 VH
VL: B4 VL
notes: human IgG1/kappa; also called 2H8_HCvar6 + 2H8_LC
B20: 2H8.18 (antibody, human IgG1, V domains shown)
VH: B8 VH
VL: B4 VL with V3Q, K13T, V15I, T18R, D28N, R31T, S40P, R54W, D85E, R103K
notes: human IgG1/kappa; also called 2H8_HCvar6 + 2H8_LCvar3
B21: 2H8.07 (antibody, human IgG1, V domains shown)
VH: B4 VH with A9P, R13K, T16A, S31N, Y32F, V37L, D66A
VL: B4 VL with K13T, T18R, D28N, R31T, S40P, S46A, D85E, P95M, R103K
notes: human IgG1/kappa; also called 2H8_HC + 2H8_LCvar2
B22: 2H8.17 (antibody, human IgG1, V domains shown)
VH: B14 VH
VL: B4 VL with V3Q, K13T, V15I, T18R, D28N, R31T, S40P, R54W, D85E, R103K
notes: human IgG1/kappa; also called 2H8_HCvar5 + 2H8_LCvar3
B23: 2H8.23 (antibody, human IgG1, V domains shown)
VH: B14 VH
VL: B4 VL with K13T, T18R, V21I, D28N, R31T, S40P, S46A, H53Y, D85E, R103K
notes: human IgG1/kappa; also called 2H8_HCvar5 + 2H8_LCvar4
B24: 2H8.11 (antibody, human IgG1, V domains shown)
VH: B14 VH
VL: B4 VL with K13T, T18R, D28N, R31T, S40P, S46A, D85E, P95M, R103K
notes: human IgG1/kappa; also called 2H8_HCvar5 + 2H8_LCvar2
B25: 2H8.13 (antibody, human IgG1, V domains shown)
VH: B4 VH with A9P, R13K, T16A, S31N, Y32F, V37L, D66A
VL: B4 VL with V3Q, K13T, V15I, T18R, D28N, R31T, S40P, R54W, D85E, R103K
notes: human IgG1/kappa; also called 2H8_HC + 2H8_LCvar3
B26: 2H8.19 (antibody, human IgG1, V domains shown)
VH: B4 VH with A9P, R13K, T16A, S31N, Y32F, V37L, D66A
VL: B4 VL with K13T, T18R, V21I, D28N, R31T, S40P, S46A, H53Y, D85E, R103K
notes: human IgG1/kappa; also called 2H8_HC + 2H8_LCvar4
B27: 2H8.10 (antibody, human IgG1, V domains shown)
VH: B6 VH
VL: B4 VL with K13T, T18R, D28N, R31T, S40P, S46A, D85E, P95M, R103K
notes: human IgG1/kappa; also called 2H8_HCvar4 + 2H8_LCvar2
B28: 2H8.33 (antibody, human IgG1, V domains shown)
VH: B4 VH
VL: B4 VL with V3Q, T18R, D28N, R31S
notes: human IgG1/kappa; also called 2H8_HCvar3 + 2H8_LCvar6
B29: 2H8.08 (antibody, human IgG1, V domains shown)
VH: B6 VH with I2V, S7P, V37I, A55D, A56T, N59K, Y60F, G77S, S84N
VL: B4 VL with K13T, T18R, D28N, R31T, S40P, S46A, D85E, P95M, R103K
notes: human IgG1/kappa; also called 2H8_HCvar2 + 2H8_LCvar2
B30: 2H8.20 (antibody, human IgG1, V domains shown)
VH: B6 VH with I2V, S7P, V37I, A55D, A56T, N59K, Y60F, G77S, S84N
VL: B4 VL with K13T, T18R, V21I, D28N, R31T, S40P, S46A, H53Y, D85E, R103K
notes: human IgG1/kappa; also called 2H8_HCvar2 + 2H8_LCvar4
B31: 2H8.22 (antibody, human IgG1, V domains shown)
VH: B6 VH
VL: B4 VL with K13T, T18R, V21I, D28N, R31T, S40P, S46A, H53Y, D85E, R103K
notes: human IgG1/kappa; also called 2H8_HCvar4 + 2H8_LCvar4
B32: 2H8.38 (antibody, human IgG1, V domains shown)
VH: B6 VH with I2V, S7P, V37I, A55D, A56T, N59K, Y60F, G77S, S84N
VL: B4 VL with V3L, K13T, T18R, D28N, K39I, S46P, A84V, D85E, Y86F, R103K
notes: human IgG1/kappa; also called 2H8_HCvar2 + 2H8_LCvar7
B33: 2H8.36 (antibody, human IgG1, V domains shown)
VH: B8 VH
VL: B4 VL with V3Q, T18R, D28N, R31S
notes: human IgG1/kappa; also called 2H8_HCvar6 + 2H8_LCvar6
B34: 2H8.24 (antibody, human IgG1, V domains shown)
VH: B8 VH
VL: B4 VL with K13T, T18R, V21I, D28N, R31T, S40P, S46A, H53Y, D85E, R103K
notes: human IgG1/kappa; also called 2H8_HCvar6 + 2H8_LCvar4

Molecular target: T1, recombinant BACE1 (BACE1 extracellular domain, R&D Systems Cat#931-AS) (UniProt P56817 22-457)
T1 construct: extracellular domain; also called BACE1 extracellular domain protein
Assay: SPR Biacore

T1 sequence (P56817 22-457): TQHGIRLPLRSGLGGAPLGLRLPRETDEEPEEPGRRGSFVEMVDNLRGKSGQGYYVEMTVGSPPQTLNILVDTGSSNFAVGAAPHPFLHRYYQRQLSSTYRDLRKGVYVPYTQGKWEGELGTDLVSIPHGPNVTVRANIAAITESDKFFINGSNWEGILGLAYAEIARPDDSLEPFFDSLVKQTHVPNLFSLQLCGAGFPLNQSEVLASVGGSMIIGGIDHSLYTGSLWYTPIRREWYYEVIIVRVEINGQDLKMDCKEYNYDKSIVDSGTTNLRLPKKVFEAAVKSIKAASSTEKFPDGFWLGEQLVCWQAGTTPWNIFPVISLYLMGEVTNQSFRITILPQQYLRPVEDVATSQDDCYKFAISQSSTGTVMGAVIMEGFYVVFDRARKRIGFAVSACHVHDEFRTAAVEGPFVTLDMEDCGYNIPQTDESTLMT

Kd [µM] | Binder
0.135 | B1
0.185 | B2
0.172 | B3

Molecular target: T1, recombinant BACE1 (BACE1 extracellular …)
Assay: SPR Biacore
Remark: another data set of the same source

Kd [µM] | koff [s⁻¹] | kon [M⁻¹ s⁻¹] | Binder
0.0179 | 0.000289 | 16100 | B4
0.017 | 0.00024 | 14100 | B5
0.0255 | 0.000425 | 16700 | B6
0.0183 | 0.000312 | 17000 | B7
0.0212 | 0.000274 | 12900 | B8
0.0378 | 0.000631 | 16700 | B9
0.0905 | 0.00104 | 11400 | B10
0.0183 | 0.000228 | 12500 | B11
0.0228 | 0.000278 | 12200 | B12
0.0191 | 0.000456 | 23900 | B13
0.0186 | 0.000255 | 13700 | B14
0.034 | 0.00062 | 18200 | B15
0.0152 | 0.000251 | 16500 | B16
0.171 | 0.00166 | 9680 | B17
0.0192 | 0.000291 | 15200 | B18
0.016 | 0.000264 | 16500 | B19

Kd [µM] | koff [s⁻¹] | kon [M⁻¹ s⁻¹] | Binder
0.0324 | 0.00039 | 12000 | B20
0.02 | 0.000294 | 14700 | B21
0.019 | 0.000259 | 13600 | B22
0.0794 | 0.00101 | 12700 | B23
0.0177 | 0.000235 | 13300 | B24
0.0198 | 0.000308 | 15500 | B25
0.0425 | 0.000674 | 15900 | B26
0.062 | 0.000878 | 14200 | B27
0.0118 | 0.000171 | 14500 | B28
0.0209 | 0.000299 | 14300 | B29
0.0934 | 0.00147 | 15800 | B30
0.304 | 0.0109 | 35900 | B31
0.0178 | 0.000329 | 18500 | B32
0.0235 | 0.000273 | 11600 | B33
0.183 | 0.00243 | 13300 | B34
